Results taken from patent US20220281976A1 (Alector, published 2022).

T1: mouse CD33 Fc fusion protein (mouse, UniProt Q63994 18-240, limits assumed)
T1 construct: also called mCD33-Fc
T1 sequence: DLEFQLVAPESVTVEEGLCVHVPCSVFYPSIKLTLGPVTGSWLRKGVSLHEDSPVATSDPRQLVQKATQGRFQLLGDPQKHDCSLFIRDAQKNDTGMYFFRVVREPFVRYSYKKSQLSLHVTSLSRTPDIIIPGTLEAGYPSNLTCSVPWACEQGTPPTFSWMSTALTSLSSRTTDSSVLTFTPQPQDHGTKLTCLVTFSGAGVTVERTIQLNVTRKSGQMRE


How the values were obtained:
[1] = biological target: T2, human CD33 Fc fusion protein (human, UniProt P20138 18-259); test: RBC adhesion to plate-bound CD33-Fc; antibody 1.0 ug/ml;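 note: red blood cells adhering to plate-coated CD33-Fc after 1 h antibody pretreatment, then 1 h at room temperature, bound cells read as peroxidase activity after lysis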
T2 construct: also called hCD33-Fc; human CD33/Fc chimera (R&D Systems)
T2 sequence (P20138 18-259 limits assumed): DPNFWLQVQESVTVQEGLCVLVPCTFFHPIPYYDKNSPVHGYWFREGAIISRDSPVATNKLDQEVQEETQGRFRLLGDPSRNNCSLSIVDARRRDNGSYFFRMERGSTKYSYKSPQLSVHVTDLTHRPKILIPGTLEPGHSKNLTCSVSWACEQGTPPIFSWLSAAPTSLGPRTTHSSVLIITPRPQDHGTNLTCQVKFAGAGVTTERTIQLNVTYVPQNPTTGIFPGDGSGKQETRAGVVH

[2] = biological target: T1, mouse CD33 Fc fusion protein; test: ForteBio BLI or MSD-SET
[3] = biological target: T3, human CD33 (human, UniProt P20138 18-364); test: flow cytometry, human primary macrophages;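 note: binding of CD33 antibodies at 10 µg/ml to human primary macrophages, 1 h on ice, detected with PE-labelled secondary antibody by flow cytometry, reported as MFI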
T3 construct: CD33 on human primary dendritic cells, macrophages, monocytes and T cells and on CHO cells expressing recombinant human CD33; also called Siglec-3; hCD33
T3 sequence (P20138 18-364): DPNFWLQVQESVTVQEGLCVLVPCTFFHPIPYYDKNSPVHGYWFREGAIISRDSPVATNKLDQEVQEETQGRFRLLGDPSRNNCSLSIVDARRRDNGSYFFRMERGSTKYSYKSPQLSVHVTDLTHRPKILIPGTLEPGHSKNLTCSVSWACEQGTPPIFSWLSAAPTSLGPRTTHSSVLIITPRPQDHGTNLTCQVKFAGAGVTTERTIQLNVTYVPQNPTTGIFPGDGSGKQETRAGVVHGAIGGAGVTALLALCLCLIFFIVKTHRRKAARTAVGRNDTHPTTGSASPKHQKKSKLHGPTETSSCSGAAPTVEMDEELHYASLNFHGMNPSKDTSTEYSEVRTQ

[4] = biological target: T3, human CD33; test: flow cytometry, human primary monocytes; parameters: reference not given here;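 note: binding of anti-CD33 antibodies at 10 ug/ml to human primary monocytes, 1 h on ice, detected by PE-labelled secondary antibody, flow cytometry readout as mean fluorescence intensity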
[5] = biological target: T4, human monomeric His tagged CD33 protein (human, UniProt P20138 18-259); test: ForteBio BLI or MSD-SET, IgG, monomeric antigen;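 note: BLI: antibodies captured on AHQ sensors, 100 nM antigen association 5 min, dissociation 5 min, 1:1 fit. MSD-SET: antigen fixed at 50 pM, antibody titrated, quadratic fit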
T4 construct: also called hCD33-His
T4 sequence (P20138 18-259 limits assumed): as the sequence (P20138 18-259 limits assumed) above
Procedure: (§1) The binding affinity of each anti-CD33 antibody was determined by measuring their KD by ForteBio or MSD-SET. […] Briefly, ForteBio affinity measurements were performed by loading IgGs on-line onto AHQ sensors. Sensors were equilibrated off-line in assay buffer for 30 min and then monitored on-line for 60 seconds for baseline establishment. Sensors with loaded IgGs were exposed to 100 nM antigen for 5 minutes, then transferred to assay buffer for 5 min for off-rate measurement. Kinetics were analyzed using the 1:1 binding model.
(§2) Solution equilibrium titrations (SET) were performed in PBS+0.1% IgG-Free BSA (PBSF) with antigen held constant at 50 pM and incubated with 3-to 5-fold serial dilutions of antibody starting at 10 nM. Antibodies (20 nM in PBS) were coated onto standard bind MSD-ECL plates overnight at 4° C. or at room temperature for 30 min. Plates were then blocked for 30 min with shaking at 700 rpm, followed by three washes with wash buffer (PBSF+0.05% Tween 20). SET samples were applied and incubated on the plates for 150s with shaking at 700 rpm followed by one wash. Antigen captured on a plate was detected with 250 ng/mL sulfotag-labeled streptavidin in PBSF by incubation on the plate for 3 min. The plates were washed three times with wash buffer and then read on the MSD Sector Imager 2400 instrument using 1× Read Buffer T with surfactant. The percent free antigen was plotted as a function of titrated antibody in Prism and fit to a quadratic equation to extract the KD. To improve throughput, liquid handling robots were used throughout MSD-SET experiments, including SET sample preparation.

[6] = biological target: T3, human CD33; test: cell-based or functional assay
[7] = biological target: T3, human CD33; test: flow cytometry, human primary T cells;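 note: binding of anti-CD33 antibodies at 10 ug/ml to human primary T cells, 1 h on ice, detected with PE-labelled secondary antibody, read as flow cytometry MFI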
[8] = biological target: T2, human CD33 Fc fusion protein; test: RBC adhesion to plate-bound CD33-Fc; antibody 0.5 ug/ml;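 note: Plate-coated CD33-Fc preincubated 1 h with antibody, then red blood cells added for 1 h at room temperature, adherent cells lysed and quantified via peroxidase activity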
[9] = biological target: T3, human CD33; test: flow cytometry, human primary dendritic cells;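 note: binding of anti-CD33 antibodies (10 ug/ml, 1 h on ice) to human primary dendritic cells, detected with a PE-labelled secondary antibody, reported as flow cytometry MFI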
[10] = biological target: T2, human CD33 Fc fusion protein; test: ForteBio BLI or MSD-SET, IgG, avid;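 note: Anti-CD33 IgG affinity by BLI, IgG captured on AHQ sensors with antigen in solution and a one-to-one kinetic fit, or by MSD solution equilibrium titration with quadratic fit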
Procedure: as §1, §2

Binder | Percent RBC Binding to CD33 [1] | binding result [2] | Macrophage MFI [3] | Monocyte MFI [4] | Kd [5] | Percent CD33 Surface Expression, DC % CD33 [6] | Percent CD33 Surface Expression, Monocyte % CD33 [6] | T cell MFI [7] | Percent RBC Binding to CD33 [8] | DC MFI [9] | Kd [10] | Percent CD33 Surface Expression, Macrophage % CD33 [6]
C-95 (antibody, V domains shown, human IgG1) VH: not shown VL: DIVMTQSPDSLAVSLGERATINCKSSQSVLYSSNNKNYLAWYQQKPGQAPRLLIYGASSRATGIPDRFSGSGSGTDFTLTISRLEPEDFAVYYCQQDYSSPLTFGGGTKVEIK | 92.3% | no binding (tested: 100 nM) | 369 | 569 | 71.5 nM | 87.9% | 83% | 144 | 85% | 48 | 9.65 nM | –
C-91 (antibody, V domains shown, human IgG1) VH: EVQLVESGGGLVQPGGSLRLSCAASGFTFSSYWMSWVRQAPGKGLEWVANIKSDGSEKYYVDSVKGRFTISRDNAKNSLYLQMNSLRAEDTAVYYCARDVGGDYSGSDLASYWGQGTLVTVSS VL: DIQMTQSPSSLSASVGDRVTITCRASQSISSYLNWYQQKPGKAPKLLIYAASSLQSGVPSRFSGSGSGTDFTLTISSLQPEDFATYYCQQGYDPPLTFGGGTKVEIK | 7% | no binding (tested: 100 nM) | 1230 | 893 | 4.26 nM | 18.8% | 24.3% | 38.2 | 17.6% | 150 | 1.2 nM | 38.4%
C-92 (antibody, V domains shown, human IgG1) VH: EVQLVESGGGLVKPGGSLRLSCAASGFTFSSYSMNWVRQAPGKGLEWVSSISSSSSYIYYADSVKGRFTISRDNAKNSLYLQMNSLRAEDTAVYYCARLGATATTDYAYGMDVWGQGTTVTVSS VL: not shown | 76.2% | no binding (tested: 100 nM) | 537 | 918 | 15.7 nM | 73.9% | 79.2% | 42.3 | 98.5% | 107 | 3.4 nM | –
C-12 (antibody, V domains shown, human IgG1) VH: EVQLLESGGGLVQPGGSLRLSCAASGFTFSNYAMSWVRQAPGKGLEWVSAISGSGGSTYYADSVKGRFTISRDNSKNTLYLQMNSLRAEDTAVYYCARDGSRYSYGLVAYGMDVWGQGTTVTVSS VL: EIVLTQSPGTLSLSPGERATLSCRASQSVSSSFLAWYQQKPGQAPRLLIYGASSRATGIPDRFSGSGSGTDFTLTISRLEPEDFAVYYCQQSQLRPTFGGGTKVEIK | 17.8% | no binding (tested: 100 nM) | 1080 | 208 | 7.47 nM | 23.6% | 54.2% | 182 | 6.34% | 1120 | 1.84 nM | 68.5%
C-3 (antibody, V domains shown, human IgG1) VH: QVQLVQSGAEVKKPGSSVKVSCKASGGTFSNYAISWVRQAPGQGLEWMGGIIPIFGTANYAQKFQGRVTITADESTSTAYMELSSLRSEDTAVYYCARDTGTYVTGDGMDVWGQGTTVTVSS VL: EIVMTQSPATLSVSPGERATLSCRASQSVSSNLAWYQQKPGQAPRLLIYGASTRATGIPARFSGSGSGTEFTLTISSLQSEDFAVYYCQQYDVWPITFGGGTKVEIK | 9.8% | no binding (tested: 100 nM) | 715 | 109 | 5.76 nM | 27.9% | 29.1% | 262 | 14.5% | 1520 | 1.11 nM | 63.5%

Continued by falling Kd [5], values first:

Percent RBC Binding to CD33 [1] | binding result [2] | Macrophage MFI [3] | Monocyte MFI [4] | Kd [5] | Percent CD33 Surface Expression, DC % CD33 [6] | Percent CD33 Surface Expression, Monocyte % CD33 [6] | T cell MFI [7] | Percent RBC Binding to CD33 [8] | DC MFI [9] | Kd [10] | Percent CD33 Surface Expression, Macrophage % CD33 [6] | Binder
7.6% | no binding (tested: 100 nM) | 795 | 106 | 7.12 nM | 23.3% | 41.3% | 231 | 13% | 1030 | 1.56 nM | 64.3% | C-11 (antibody, V domains shown, human IgG1) VH: QVQLVQSGAEVKKPGSSVKVSCKASGGTFSNYAISWVRQAPGQGLEWMGGIIPIFGTANYAQKFQGRVTITADESTSTAYMELSSLRSEDTAVYYCARDTGTYVTGDGMDVWGQGTTVTVSS VL: EIVMTQSPATLSVSPGERATLSCRASQSVSSNLAWYQQKPGQAPRLLIYSASTRATGIPARFSGSGSGTEFTLTISSLQSEDFAVYYCQQYIVLPITFGGGTKVEIK
12.7% | no binding (tested: 100 nM) | 980 | 204 | 6.94 nM | 42.1% | 51.9% | 193 | 12.7% | 1370 | 1.95 nM | 87.3% | C-8 (antibody, V domains shown, human IgG1) VH: not shown VL: EIVLTQSPGTLSLSPGERATLSCRASQSVSSSFLAWYQQKPGQAPRLLIYGASSRATGIPDRFSGSGSGTDFTLTISRLEPEDFAVYYCQQVASPPPTFGGGTKVEIK
12.3% | no binding (tested: 100 nM) | 792 | 107 | 6.24 nM | 19.5% | 31.5% | 246 | 13.8% | 1230 | 1.41 nM | 44.5% | C-10 (antibody, V domains shown, human IgG1) VH: QVQLVQSGAEVKKPGSSVKVSCKASGGTFSNYAISWVRQAPGQGLEWMGGIIPIFGTANYAQKFQGRVTITADESTSTAYMELSSLRSEDTAVYYCARDTGTYVTGDGMDVWGQGTTVTVSS VL: EIVMTQSPATLSVSPGERATLSCRASQSVSSNLAWYQQKPGQAPRLLIYGASTRATGIPARFSGSGSGTEFTLTISSLQSEDFAVYYCQQYVNLPITFGGGTKVEIK
8.3% | no binding (tested: 100 nM) | 1240 | 867 | 4.8 nM | 30% | 31.1% | 247 | 17.6% | 164 | 1.24 nM | 38.9% | C-109 (antibody, V domains shown, human IgG1) VH: EVQLVESGGGLVQPGGSLRLSCAASGFTFSSYWMSWVRQAPGKGLEWVANIKSDGSEKYYVDSVKGRFTISRDNAKNSLYLQMNSLRAEDTAVYYCARDVGGDYSGSDLASYWGQGTLVTVSS VL: not shown
20% | no binding (tested: 100 nM) | 886 | 175 | 4.17 nM | 26% | 33.1% | 307 | 27.8% | 1700 | 1.09 nM | 63.4% | C-9 (antibody, V domains shown, human IgG1) VH: QLQLQESGPGLVKPSETLSLTCTVSGGSISSSSYYWGWIRQPPGKGLEWIGSIYYSGSTYYNPSLKSRVTISVDTSKNQFSLKLSSVTAADTAVYYCARESGFAGLDPWGQGTLVTVSS VL: EIVLTQSPGTLSLSPGERATLSCRASQSVSSSFLAWYQQKPGQAPRLLIYGASSRATGIPDRFSGSGSGTDFTLTISRLEPEDFAVYYCQQSEDWPTFGGGTKVEIK
80.8% | no binding (tested: 100 nM) | 746 | 178 | 3.49 nM | 63.1% | 101% | 35.7 | 76.5% | 1120 | 1.28 nM | 97.4% | C-14 (antibody, V domains shown, human IgG1) VH: not shown VL: DIQMTQSPSSVSASVGDRVTITCRASQGISSWLAWYQQKPGKAPKLLIYAASSLQSGVPSRFSGSGSGTDFTLTISSLQPEDFATYYCQQANYFPTFGGGTKVEIK
